This passage reports stoichiometry N results from paper PMC8146883, “A New Thermophilic Ene-Reductase from the Filamentous Anoxygenic Phototrophic Bacterium Chloroflexus aggregans” (Microorganisms, 2021).

The assay deals with CaOYE, ene-reductase (Old Yellow Enzyme homologue) from Chloroflexus aggregans (Chloroflexus aggregans DSM 9485) (UniProt B8G5D6). Description: crystal structure; N-terminally His6-tagged CaOYE at 20 mg/mL in 50 mM Tris-HCl pH 8.0; crystals from 100 mM HEPES pH 7.0, 1.1 M sodium malonate, 0.5% Jeffamine ED-2003, 293 K; space group C2221, 4 molecules per asymmetric unit; dimer seen in the crystal packing.

Chain of CaOYE, ene-reductase (Old Yellow Enzyme homologue) from Chloroflexus aggregans (B8G5D6 whole entry): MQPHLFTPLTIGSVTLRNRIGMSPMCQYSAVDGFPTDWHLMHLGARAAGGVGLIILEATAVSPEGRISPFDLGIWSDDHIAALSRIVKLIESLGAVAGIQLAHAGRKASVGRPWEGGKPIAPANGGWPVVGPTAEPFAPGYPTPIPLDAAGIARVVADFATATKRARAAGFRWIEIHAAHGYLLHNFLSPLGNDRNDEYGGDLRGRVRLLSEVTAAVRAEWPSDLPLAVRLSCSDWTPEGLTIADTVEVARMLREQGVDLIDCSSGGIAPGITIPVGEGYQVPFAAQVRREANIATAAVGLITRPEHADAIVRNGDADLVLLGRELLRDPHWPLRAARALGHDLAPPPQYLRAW

“CaOYE, ene-reductase (Old Yellow Enzyme homologue) from Chloroflexus aggregans (from UniProt B8G5D6 1-354)”: the stoichiometry N (commonly a count of units in the complex or per binding partner) was 2.
